Measurements: US11833164B2, “Methods of treating Fabry disease in patients having a mutation in the GLA gene” (Amicus Therapeutics, Inc., priority 2019, dated 2023)
Where a chain is given by its changes, count along the chain named. Names and notes keep the numbering of the source.

B1: D101E (protein)
chain: MQLRNPELHLGCALALRFLALVSWDIPGARALDNGLARTPTMGWLHWERFMCNLDCQEEPDSCISEKLFMEMAELMVSEGWKDAGYEYLCIDDCWMAPQRESEGRLQADPQRFPHGIRQLANYVHSKGLKLGIYADVGNKTCAGFPGSFGYYDIDAQTFADWGVDLLKFDGCYCDSLENLADGYKHMSLALNRTGRSIVYSCEWPLYMWPFQKPNYTEIRQYCNHWRNFADIDDSWKSIKSILDWTSFNQERIVDVAGPGGWNDPDMLVIGNFGLSWNQQVTQMALWAIMAAPLFMSNDLRHISPQAKALLQDKDVIAINQDPLGKQGYQLRQGDNFEVWERPLSGLAWAVAMINRQEIGGPRSYTIAVASLGKGVACNPACFITQLLPVKRKLGFYEWTSRLRSHINPTGTVLLQLENTMQMSLKDLL
B2: R105I (protein)
chain: B1 chain with E101D, R105I
B3: G104A (protein)
chain: B1 chain with E101D, G104A
B4: D101G (protein)
chain: B1 chain with E101G
B5: Q107H (protein)
chain: B1 chain with E101D, Q107H
B6: L106H (protein)
chain: B1 chain with E101D, L106H
B7: D101H (protein)
chain: B1 chain with E101H
B8: G104S (protein)
chain: B1 chain with E101D, G104S
B9: S102A (protein)
chain: B1 chain with E101D, S102A
B10: Q107K (protein)
chain: B1 chain with E101D, Q107K
B11: L106P (protein)
chain: B1 chain with E101D, L106P
B12: L106I (protein)
chain: B1 chain with E101D, L106I
B13: D101V (protein)
chain: B1 chain with E101V
B14: R105G (protein)
chain: B1 chain with E101D, R105G
B15: L106V (protein)
chain: B1 chain with E101D, L106V
B16: R105T (protein)
chain: B1 chain with E101D, R105T
B17: S102T (protein)
chain: B1 chain with E101D, S102T
B18: Q107E (protein)
chain: B1 chain with E101D, Q107E
B19: S102P (protein)
chain: B1 chain with E101D, S102P
B20: R105K (protein)
chain: B1 chain with E101D, R105K
B21: G104D (protein)
chain: B1 chain with E101D, G104D

test system: mutant form of α-Gal A expressed in HEK-293 cells; assay: HEK assay (GLP HEK / Migalastat Amenability Assay): α-Gal A activity in lysates of transiently transfected HEK-293 cells incubated with or without 10 μM migalastat; format: cell-based, human; conditions: 10 μM migalastat versus baseline
Protocol: Such mutations or variants are also referred to herein as “HEK assay amenable” mutations or variants.
The α-Gal A activity is expressed as the nmoles of free 4-MU released per milligram of protein per hour (nmol/mg/hr).
In Table 7, values for the mean±standard error of the mean (SEM) were calculated. nmol/mg/hr indicates “nmoles of free 4-MU released per mg of protein per hour”. WT indicates “wild-type”. NC indicates “not calculable”. N/A indicates “not applicable”.

Row | Molecule | Absolute increase (% WT)
1 | B1 | 10.1
2 | B2 | 8.2
3 | B3 | 40.4
4 | B4 | 12.7
5 | B5 | 9.1
6 | B6 | 7.3
7 | B7 | 7.3
8 | B8 | 52.0
9 | B9 | 27.3
10 | B10 | 16.4
11 | B11 | 25.8
12 | B12 | 23.6
13 | B13 | 10.2
14 | B14 | 15.3
15 | B15 | 19.8
16 | B16 | 15.6
17 | B17 | 20.5
18 | B18 | 10.4
19 | B19 | 22.3
20 | B20 | 20.5
21 | B21 | 30.5

same assay, conditions: 10 μM migalastat α-Gal A activity relative to baseline

Row | Molecule | Relative increase
22 | B1 | 1.4
23 | B2 | 1.3
24 | B3 | 3.7
25 | B4 | 1.3
26 | B5 | 1.2
27 | B6 | 3.5
28 | B7 | 1.4
29 | B8 | 3.9
30 | B9 | 1.6
31 | B10 | 1.4
32 | B11 | 1.8
33 | B12 | 1.5
34 | B13 | 2.2
35 | B14 | 1.4
36 | B15 | 1.4
37 | B16 | 1.4
38 | B17 | 1.3
39 | B18 | 1.2
40 | B19 | 1.3
41 | B20 | 1.2
42 | B21 | 1.8

same assay, conditions: 10 μM migalastat, 5 days; percentage of baseline wild-type α-Gal A activity; mean ± SEM

Row | Molecule | 10 μM migalastat α-Gal A activity (% WT)
43 | B1 | 34 ± 2.8
44 | B2 | 41.6 ± 3.1
45 | B3 | 55.2 ± 3
46 | B4 | 54.5 ± 3.8
47 | B5 | 50.8 ± 2
48 | B6 | 10.2 ± 1.1
49 | B7 | 23.8 ± 1.3
50 | B8 | 69.8 ± 5.8
51 | B9 | 69.9 ± 5.1
52 | B10 | 54.6 ± 4.8
53 | B11 | 56.5 ± 3.9
54 | B12 | 70 ± 4.7
55 | B13 | 18 ± 2.6
56 | B14 | 53.3 ± 3.5
57 | B15 | 73.4 ± 5.9
58 | B16 | 59.6 ± 3.9
59 | B17 | 76.9 ± 6.2
60 | B18 | 56.2 ± 3.3
61 | B19 | 91.7 ± 5
62 | B20 | 96.7 ± 5.2
63 | B21 | 69.8 ± 4.7

same assay, conditions: absence of migalastat; percentage of baseline wild-type α-Gal A activity; mean ± SEM

Row | Molecule | Baseline α-Gal A activity (% WT)
64 | B1 | 23.9 ± 1.6
65 | B2 | 33.4 ± 2.2
66 | B3 | 14.8 ± 1
67 | B4 | 41.8 ± 3.1
68 | B5 | 41.7 ± 1.5
69 | B6 | 3 ± 0.2
70 | B7 | 16.5 ± 1.2
71 | B8 | 17.9 ± 1.8
72 | B9 | 42.6 ± 3.5
73 | B10 | 38.2 ± 3.9
74 | B11 | 30.7 ± 2.7
75 | B12 | 46.4 ± 2.7
76 | B13 | 7.8 ± 0.5
77 | B14 | 38 ± 2.1
78 | B15 | 53.6 ± 4.3
79 | B16 | 44 ± 2.2
80 | B17 | 56.4 ± 5.2
81 | B18 | 45.7 ± 3.1
82 | B19 | 69.4 ± 3.4
83 | B20 | 76.2 ± 2.9
84 | B21 | 39.3 ± 2.6

same assay, conditions: lysates of HEK-293 cells transfected with the mutant form, incubated 5 days in the absence of migalastat; mean ± SEM

Row | Molecule | Baseline α-Gal A activity [nmol/mg/h]
85 | B1 | 10465 ± 624
86 | B2 | 9696 ± 798
87 | B3 | 5271 ± 397
88 | B4 | 18091 ± 1103
89 | B5 | 12307 ± 487
90 | B6 | 856 ± 58
91 | B7 | 7311 ± 556
92 | B8 | 5720 ± 464
93 | B9 | 17330 ± 2084
94 | B10 | 14579 ± 2689
95 | B11 | 8835 ± 878
96 | B12 | 13485 ± 1014
97 | B13 | 3368 ± 179
98 | B14 | 16513 ± 681
99 | B15 | 15393 ± 1288
100 | B16 | 12553 ± 603
101 | B17 | 22123 ± 2319
102 | B18 | 13148 ± 985
103 | B19 | 27252 ± 1778
104 | B20 | 25495 ± 1793
105 | B21 | 14123 ± 1096

same assay, conditions: lysates of HEK-293 cells transfected with the mutant form, incubated 5 days with 10 μM migalastat; mean ± SEM

Row | Molecule | 10 μM migalastat α-Gal A activity [nmol/mg/h]
106 | B1 | 14682 ± 993
107 | B2 | 12128 ± 1157
108 | B3 | 19670 ± 1202
109 | B4 | 23672 ± 1428
110 | B5 | 14822 ± 384
111 | B6 | 3009 ± 399
112 | B7 | 10493 ± 561
113 | B8 | 22242 ± 1000
114 | B9 | 26790 ± 1958
115 | B10 | 20402 ± 3399
116 | B11 | 16075 ± 1039
117 | B12 | 20120 ± 1416
118 | B13 | 7489 ± 936
119 | B14 | 22993 ± 1042
120 | B15 | 20991 ± 1611
121 | B16 | 17062 ± 1134
122 | B17 | 29662 ± 2559
123 | B18 | 16149 ± 1059
124 | B19 | 35885 ± 2754
125 | B20 | 31647 ± 2251
126 | B21 | 24797 ± 1771
